In article PMC2914828:

Target: alternative complex III (ACIII) subunit s5 (Chloroflexus aurantiacus strain J-10-fl (endogenous))
Assay: cross-linking

stoichiometry N: 2
Substance: alternative complex III (ACIII) subunit s5 (natural protein)
